Data reported in the supplement of paper PMC9112550, “Optimization of the antimicrobial peptide Bac7 by deep mutational scanning” (BMC Biology, 2022).

These sequences were tested on Escherichia coli TOP10 (assay: shrunken log2 fold change of peptide-encoding DNA abundance (4.5 h post-induction vs induction); higher = less antimicrobial activity (less host growth inhibition)). Conditions: time post-induction: 4.5 h; library: site-saturation at positions 5, 18, 19, 20.
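Further: peptides expressed intracellularly from a pBAD plasmid library in pooled LB shake-flask culture, induced with 0.3% L-arabinose, DNA abundance read by NGS, three biological replicates, DESeq2 with apeglm shrinkage.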

| Sequence | shrunken log2 fold change |
| --- | --- |
| RRIRMRPPRLPRPRPRPSRRPRP | 0.189 |
| RRIRKRPPRLPRPRPRPGESPRP | 0.0841 |
| RRIRKRPPRLPRPRPRPCWDPRP | 0.0719 |
| RRIRYRPPRLPRPRPRPSWTPRP | -1.11 |
| RRIRLRPPRLPRPRPRPERNPRP | 0.129 |
| RRIRVRPPRLPRPRPRPFPNPRP | 0.038 |
| RRIRFRPPRLPRPRPRPRGWPRP | 0.9 |
| RRIRHRPPRLPRPRPRPARDPRP | 0.147 |
| RRIRGRPPRLPRPRPRPSNFPRP | 0.0228 |
| RRIRKRPPRLPRPRPRPAKLPRP | 0.446 |
| RRIRPRPPRLPRPRPRPFTNPRP | -0.286 |
| RRIRMRPPRLPRPRPRPFARPRP | 0.412 |
| RRIRPRPPRLPRPRPRPVKTPRP | 0.0289 |
| RRIRHRPPRLPRPRPRPDCVPRP | -0.383 |
| RRIRWRPPRLPRPRPRPRVCPRP | 0.347 |
| RRIRYRPPRLPRPRPRPKHRPRP | 0.0727 |
| RRIRLRPPRLPRPRPRPCIEPRP | -0.256 |
| RRIRDRPPRLPRPRPRPTNRPRP | -0.149 |
| RRIRHRPPRLPRPRPRPFPVPRP | 0.0399 |
| RRIRMRPPRLPRPRPRPTVIPRP | -0.271 |
| RRIRWRPPRLPRPRPRPCCQPRP | 0.0191 |
| RRIRNRPPRLPRPRPRPENRPRP | -0.0205 |
| RRIRSRPPRLPRPRPRPSIPPRP | -0.458 |
| RRIRHRPPRLPRPRPRPFCAPRP | 0.076 |
| RRIRARPPRLPRPRPRPQTEPRP | 0.292 |

| Sequence | shrunken log2 fold change |
| --- | --- |
| RRIRRRPPRLPRPRPRPCQWPRP | 0.107 |
| RRIRDRPPRLPRPRPRPNIDPRP | 0.068 |
| RRIRGRPPRLPRPRPRPCTPPRP | 0.337 |
| RRIRNRPPRLPRPRPRPEHQPRP | -0.029 |
| RRIRSRPPRLPRPRPRPSIAPRP | -0.167 |
| RRIRNRPPRLPRPRPRPPTWPRP | 0.434 |
| RRIRCRPPRLPRPRPRPKAPPRP | 0.337 |
| RRIRWRPPRLPRPRPRPAGDPRP | 0.363 |
| RRIRFRPPRLPRPRPRPKNYPRP | -0.525 |
| RRIRKRPPRLPRPRPRPYYYPRP | -0.704 |
| RRIRPRPPRLPRPRPRPKCMPRP | -0.222 |
| RRIRVRPPRLPRPRPRPQLQPRP | -0.104 |
| RRIRFRPPRLPRPRPRPVELPRP | -0.00737 |
| RRIRKRPPRLPRPRPRPATFPRP | -0.0215 |
| RRIRKRPPRLPRPRPRPPAGPRP | 0.989 |
| RRIRIRPPRLPRPRPRPGYSPRP | -0.525 |
| RRIRHRPPRLPRPRPRPTACPRP | 0.074 |
| RRIRRRPPRLPRPRPRPFRKPRP | -0.00961 |
| RRIRARPPRLPRPRPRPPVEPRP | 0.292 |
| RRIRLRPPRLPRPRPRPFPRPRP | -0.163 |
| RRIRLRPPRLPRPRPRPGHIPRP | -0.197 |
| RRIRPRPPRLPRPRPRPAMPPRP | 0.246 |
| RRIRRRPPRLPRPRPRPRALPRP | 0.482 |
| RRIRPRPPRLPRPRPRPDYSPRP | -0.815 |
| RRIRSRPPRLPRPRPRPVNPPRP | -0.118 |

| Sequence | shrunken log2 fold change |
| --- | --- |
| RRIRLRPPRLPRPRPRPCAVPRP | -0.00495 |
| RRIRIRPPRLPRPRPRPKCIPRP | -0.399 |
| RRIRPRPPRLPRPRPRPAFTPRP | -0.0147 |
| RRIRYRPPRLPRPRPRPFFSPRP | -0.77 |
| RRIRGRPPRLPRPRPRPLGCPRP | 1.27 |
| RRIRRRPPRLPRPRPRPIRHPRP | 0.307 |
| RRIRSRPPRLPRPRPRPRSLPRP | -0.0256 |
| RRIRLRPPRLPRPRPRPCISPRP | -0.177 |
| RRIRYRPPRLPRPRPRPVVAPRP | -0.32 |
| RRIRFRPPRLPRPRPRPEIIPRP | -0.0938 |
| RRIRPRPPRLPRPRPRPWNMPRP | -0.189 |
| RRIRLRPPRLPRPRPRPEGQPRP | -0.118 |
| RRIRWRPPRLPRPRPRPFAGPRP | 0.0847 |
| RRIRSRPPRLPRPRPRPTHVPRP | -0.117 |
| RRIRERPPRLPRPRPRPLRYPRP | -0.0652 |
| RRIRQRPPRLPRPRPRPAQGPRP | -0.0366 |
| RRIRRRPPRLPRPRPRPECNPRP | 0.791 |
| RRIRNRPPRLPRPRPRPHDTPRP | -0.267 |
| RRIRQRPPRLPRPRPRPPSYPRP | -0.0228 |
| RRIRHRPPRLPRPRPRPKEAPRP | 0.00884 |
| RRIRARPPRLPRPRPRPHEDPRP | 0.627 |
| RRIRWRPPRLPRPRPRPNRYPRP | 0.0333 |
| RRIRSRPPRLPRPRPRPLMTPRP | 0.653 |
| RRIRFRPPRLPRPRPRPFQCPRP | -0.0784 |
| RRIRGRPPRLPRPRPRPRAMPRP | 0.787 |

| Sequence | shrunken log2 fold change |
| --- | --- |
| RRIRRRPPRLPRPRPRPCTLPRP | -0.49 |
| RRIRWRPPRLPRPRPRPCIFPRP | -0.683 |
| RRIRNRPPRLPRPRPRPEGIPRP | 0.0204 |
| RRIRARPPRLPRPRPRPMKEPRP | -0.101 |
| RRIRDRPPRLPRPRPRPVNAPRP | 0.188 |
| RRIRMRPPRLPRPRPRPVWSPRP | 0.709 |
| RRIRTRPPRLPRPRPRPAQRPRP | 0.356 |
| RRIRYRPPRLPRPRPRPTPVPRP | -0.0457 |
| RRIRIRPPRLPRPRPRPLAFPRP | -0.302 |
| RRIRMRPPRLPRPRPRPDPRPRP | 0.104 |
| RRIRWRPPRLPRPRPRPCSSPRP | -0.259 |
| RRIRGRPPRLPRPRPRPVLLPRP | 0.122 |
| RRIRARPPRLPRPRPRPVTCPRP | 0.0514 |
| RRIRQRPPRLPRPRPRPLSQPRP | -0.0534 |
| RRIRLRPPRLPRPRPRPVTWPRP | -0.0276 |
| RRIRARPPRLPRPRPRPRKSPRP | 0.778 |
| RRIRARPPRLPRPRPRPIPYPRP | -0.0777 |
| RRIRQRPPRLPRPRPRPYACPRP | 0.0958 |
| RRIRRRPPRLPRPRPRPLGHPRP | 0.203 |
| RRIRQRPPRLPRPRPRPFMMPRP | -0.25 |
| RRIRDRPPRLPRPRPRPSQCPRP | -0.034 |
| RRIRSRPPRLPRPRPRPFDGPRP | 0.0042 |
| RRIRLRPPRLPRPRPRPCDHPRP | -0.239 |
| RRIRDRPPRLPRPRPRPAVRPRP | -0.0321 |
| RRIRQRPPRLPRPRPRPFKVPRP | -0.00664 |

| Sequence | shrunken log2 fold change |
| --- | --- |
| RRIRWRPPRLPRPRPRPWMIPRP | -0.0414 |
| RRIRMRPPRLPRPRPRPFWQPRP | 0.341 |
| RRIRARPPRLPRPRPRPYTFPRP | -0.444 |
| RRIRHRPPRLPRPRPRPFAMPRP | -0.424 |
| RRIRMRPPRLPRPRPRPHTNPRP | 0.0722 |
| RRIRGRPPRLPRPRPRPISDPRP | 0.385 |
| RRIRQRPPRLPRPRPRPAERPRP | 0.179 |
| RRIRTRPPRLPRPRPRPPAIPRP | 0.0134 |
| RRIRCRPPRLPRPRPRPCMQPRP | -0.345 |
| RRIRKRPPRLPRPRPRPFYAPRP | -0.0279 |
| RRIRIRPPRLPRPRPRPWMYPRP | -0.184 |
| RRIRDRPPRLPRPRPRPVEEPRP | 0.525 |
| RRIRRRPPRLPRPRPRPSSYPRP | -0.0808 |
| RRIRKRPPRLPRPRPRPTHEPRP | 0.267 |
| RRIRYRPPRLPRPRPRPHCMPRP | -0.161 |
| RRIRPRPPRLPRPRPRPSLSPRP | 0.022 |
| RRIRCRPPRLPRPRPRPKGKPRP | 0.328 |
| RRIRWRPPRLPRPRPRPQTEPRP | 0.0468 |
| RRIRGRPPRLPRPRPRPVRIPRP | 0.536 |
| RRIRMRPPRLPRPRPRPVAMPRP | 0.57 |
| RRIRSRPPRLPRPRPRPYMEPRP | 2.73 |
| RRIRMRPPRLPRPRPRPNHEPRP | 0.0645 |
| RRIRYRPPRLPRPRPRPEVIPRP | -0.01 |
| RRIRGRPPRLPRPRPRPARWPRP | 0.998 |
| RRIRERPPRLPRPRPRPMTKPRP | -0.0224 |

| Sequence | shrunken log2 fold change |
| --- | --- |
| RRIRNRPPRLPRPRPRPYKWPRP | -0.233 |
| RRIRIRPPRLPRPRPRPAKYPRP | -0.247 |
| RRIRLRPPRLPRPRPRPSKWPRP | -0.348 |
| RRIRVRPPRLPRPRPRPRQVPRP | 0.0645 |
| RRIRLRPPRLPRPRPRPWQVPRP | 0.0253 |
| RRIRQRPPRLPRPRPRPSICPRP | -0.443 |
| RRIRVRPPRLPRPRPRPELDPRP | 0.183 |
| RRIRCRPPRLPRPRPRPQSWPRP | 0.69 |
| RRIRPRPPRLPRPRPRPIIVPRP | -0.178 |
| RRIRSRPPRLPRPRPRPWDSPRP | -0.729 |
| RRIRQRPPRLPRPRPRPGNPPRP | -0.132 |
| RRIRIRPPRLPRPRPRPTKEPRP | 0.0462 |
| RRIRCRPPRLPRPRPRPSLWPRP | -0.0313 |
| RRIRCRPPRLPRPRPRPAWFPRP | 0.194 |
| RRIRNRPPRLPRPRPRPWNTPRP | 0.0705 |
| RRIRSRPPRLPRPRPRPHFIPRP | -0.344 |
| RRIRHRPPRLPRPRPRPKNAPRP | -0.223 |
| RRIRGRPPRLPRPRPRPIGSPRP | 0.45 |
| RRIRERPPRLPRPRPRPGVPPRP | 0.149 |
| RRIRYRPPRLPRPRPRPTPGPRP | -0.0705 |
| RRIRIRPPRLPRPRPRPHIEPRP | -0.0878 |
| RRIRMRPPRLPRPRPRPMRRPRP | 0.487 |
| RRIRVRPPRLPRPRPRPQPDPRP | 0.23 |
| RRIRTRPPRLPRPRPRPHWEPRP | -0.171 |
| RRIRNRPPRLPRPRPRPNYNPRP | -1.07 |
